From patent US20230406933A1 (RANDOX LABORATORIES, published 2023)

Experiments:
[1] = target: PD-L1 on the cell surface in the Promega PD1/PD-L1 Blockade Bioassay (Cat# J1250); experiment: cell-based or functional assay
[2] = target: T1, PDL1 coated in the commercial PD1:PDL1 inhibition assay (Acro Biosystems Cat# EP-101) (Homo sapiens (Human), UniProt Q9NZQ7 19-238); experiment: Acro Biosystems PD1:PDL1 inhibition assay; PDL1 coated, biotinylated PD1 as competitor; reference Avelumab
T1 construct: Kit reagent; construct not described

EC50 of luciferase activity fold change, Promega PD-1/PD-L1 blockade bioassay, panel GS542 [1]: 0.165 µg/mL
amount of blocking relative to Avelumab [2]: 10 fold
B1: humanised 32.1A1 clone (VHH)
VHH: QVQLVESGGGLVQPGGSLRLSCAASGRTFREYGMGWFRQAPGKGLEWVATISSSGSYSYYADSVKGRFTISRDNSKNTLYLQMNSLRAEDTAVYYCAASSLLRGSSSRAESYDSWGQGTLVTVSS
notes: CDRs of 32.1A1 grafted into a model human VH3 framework; Expressed from pScreen, purified by IMAC, detected with anti-Myc HRP; also called hum-32.1A1; hum32.1A1
